B1: 128 (protein)
chain: MTTRTRILTAFLSLLAANACAADAAPAAPHTVVLRCARMFDGASGKLVDHPQLTIVGNKIVRIAQGDKAEVPAGAEVVDLGDATCLPGFIDAHVHLSGQSSDNWYGDFFDNMMRFPAEQALYGAYYARITLEAGFTSVRDVGSTDWVALGLRNAIDAGKVPGPRMLVSNYAVGSTGGHADQDPIPPHKLPLAGPLQGVCNGPEECRAAVRYQIKYGANVIKFMPSGGVLSLSDPVDAPELSQDEMNAVIGESHAWGRKVAAHAHGDKAAKMAVAAGVDSIEHGSFIEDDTLRAMKAKNVYLVPTISAIAHVEEKIGTFPPVIAEKGRAAAAHLRQTFRHAVQIGVPIALGTDAGVGAHGSNAREFRYMVENGLTPAQALLAGTANAARLLGTFDRVGTLEAGKLADVVAVPGNPIADITVTERPLFVMKDGVVVRRDAVR
modifications: exemplary polypeptide
B2: 154 (protein)
chain: B1 chain with C36A, C85L, A171P, G354A
modifications: exemplary polypeptide
B3: 157 (protein)
chain: B1 chain with C36A, C85L, I184V, F318Y
modifications: exemplary polypeptide
B4: 139 (protein)
chain: B1 chain with C36A, C85L, S97T
modifications: exemplary polypeptide
B5: 155 (protein)
chain: B1 chain with C36A, C85L, I184V, I308A
modifications: exemplary polypeptide
B6: 153 (protein)
chain: B1 chain with C36A, C85L, A171P, F318Y
modifications: exemplary polypeptide
B7: 159 (protein)
chain: B1 chain with C36A, C85L, I308A, F318Y
modifications: exemplary polypeptide
B8: 152 (protein)
chain: B1 chain with C36A, C85L, A171P, I308V
modifications: exemplary polypeptide
B9: 137 (protein)
chain: B1 chain with C36A, C85L, S97N
modifications: exemplary polypeptide
B10: 138 (protein)
chain: B1 chain with C36A, C85L, S97P
modifications: exemplary polypeptide
B11: 141 (protein)
chain: B1 chain with C36A, C85L, G142A
modifications: exemplary polypeptide
B12: 151 (protein)
chain: B1 chain with C36A, C85L, A171P, I308A
modifications: exemplary polypeptide
B13: 140 (protein)
chain: B1 chain with C36A, C85L, S97V
modifications: exemplary polypeptide
B14: 145 (protein)
chain: B1 chain with C36A, C85L, T144P
modifications: exemplary polypeptide
B15: 136 (protein)
chain: B1 chain with C36A, C85L, S97D
modifications: exemplary polypeptide
B16: 144 (protein)
chain: B1 chain with C36A, C85L, T144E
modifications: exemplary polypeptide
B17: 143 (protein)
chain: B1 chain with C36A, C85L, T144D
modifications: exemplary polypeptide
B18: 156 (protein)
chain: B1 chain with C36A, C85L, I184V, I308V
modifications: exemplary polypeptide
B19: 146 (protein)
chain: B1 chain with C36A, C85L, T144R
modifications: exemplary polypeptide
B20: 150 (protein)
chain: B1 chain with C36A, C85L, A171P, I184V
modifications: exemplary polypeptide
B21: 148 (protein)
chain: B1 chain with C36A, C85L, A179S
modifications: exemplary polypeptide
B22: 158 (protein)
chain: B1 chain with C36A, C85L, I184V, G354A
modifications: exemplary polypeptide

Changes are numbered by the printed parent chain.

One series can be described thus: OTA detoxification activity assay (specific activity, fluorescence reduction ex/em 390/450 nm). The settings on record: pH 6.0; SEQ ID NO: 1 = 100%. The class given is biochemical. Summed up: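 Recombinant enzyme preparation with 200 ng/mL OTA in 100 mM sodium phosphate, at pH 6.0 and pH 7.5, 37° C. Degradation followed as the fall in fluorescence at ex/em 390/450 nm. Specific activity taken from the initial linear slope; one unit degrades 1 μmol OTA per min at a starting OTA of […].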
Turning to B1, the “Specific OTA detoxification activities in % compared to the enzyme of SEQ ID NO: 1, pH 6.0” value is given as 67%.
Still for that read-out and setting: with B2 the figure was 38%; with B3, 78%; with B4, 141%.
Same read-out and setting: with B5 the figure was 116%; with B6, 72%.
The same measure, in the same setting: with B7 the figure was 84%; with B8, 65%; with B9, 86%.
As for B10, the “Specific OTA detoxification activities in % compared to the enzyme of SEQ ID NO: 1, pH 6.0” value was 46%.
On the same count and under the same terms, in the case of B11 it was 138%.
Same read-out and setting: with B12 the figure was 75%.
The same measure, in the same setting: in the case of B13 it was 118%; in that of B14, 101%; in that of B15, 64%.
Consider B16, for which the “Specific OTA detoxification activities in % compared to the enzyme of SEQ ID NO: 1, pH 6.0” value stood at 78%.
On the same count and under the same terms, in the case of B17 it was 86%; in that of B18, 144%.
The same measure, in the same setting: in the case of B19 it was 172%; in that of B20, 89%.
On the same count and under the same terms, in the case of B21 it was 40%.
Consider B22, for which the “Specific OTA detoxification activities in % compared to the enzyme of SEQ ID NO: 1, pH 6.0” value is given as 157%.

Staying with this series, now noted: pH 7.5; SEQ ID NO: 1 = 100%.
For B1, the “Specific OTA detoxification activities in % compared to the enzyme of SEQ ID NO: 1, pH 7.5” value worked out at 73%.
Consider B2, for which the “Specific OTA detoxification activities in % compared to the enzyme of SEQ ID NO: 1, pH 7.5” value worked out at 38%.
Still for that read-out and setting: in the case of B3 it was 63%.
The same measure, in the same setting: with B4 the figure was 88%; with B5, 124%.
Regarding B6, the “Specific OTA detoxification activities in % compared to the enzyme of SEQ ID NO: 1, pH 7.5” value was 77%.
Still for that read-out and setting: with B7 the figure was 93%; with B8, 74%.
With B9, the “Specific OTA detoxification activities in % compared to the enzyme of SEQ ID NO: 1, pH 7.5” value is 93%.
On to B10, for which the “Specific OTA detoxification activities in % compared to the enzyme of SEQ ID NO: 1, pH 7.5” value stood at 29%.
For B11, the “Specific OTA detoxification activities in % compared to the enzyme of SEQ ID NO: 1, pH 7.5” value came out at 123%.
As to B12, the “Specific OTA detoxification activities in % compared to the enzyme of SEQ ID NO: 1, pH 7.5” value turned out to be 86%.
On the same count and under the same terms, with B13 the figure was 120%; with B14, 90%; with B15, 48%.
On the same count and under the same terms, in the case of B16 it was 95%; in that of B17, 84%.
On the same count and under the same terms, with B18 the figure was 109%; with B19, 112%.
Consider B20, for which the “Specific OTA detoxification activities in % compared to the enzyme of SEQ ID NO: 1, pH 7.5” value was found to be 62%.
On the same count and under the same terms, in the case of B21 it was 19%; in that of B22, 92%.

The next series in a line: Enzymatic activity comparison: activity remaining after 65° C. for 10 min at pH 6.0, relative to SEQ ID NO: 1. The class given is physicochemical.
Details: not given
Here is the method: To compare the temperature behavior and thermostability of selected enzymes to one another, enzyme was incubated at 65° C. for 10 min at pH 6.0. The enzymatic activity remaining after incubation was compared to the remaining activity of the enzyme of SEQ ID NO: 1 after incubation, the latter being set to 100%, see Table 16.
Consider B1, for which the “Enzymatic activity remaining after incubation, compared to SEQ ID NO: 1 (set to 100%)” value is reported as 84%.
The same measure, in the same setting: in the case of B2 it was 32%; in that of B3, 73%; in that of B4, 40%.
On the same count and under the same terms, with B5 the figure was 35%.
B6: the “Enzymatic activity remaining after incubation, compared to SEQ ID NO: 1 (set to 100%)” value stood at 34%.
Same read-out and setting: in the case of B7 it was 30%; in that of B8, 38%.
The same measure, in the same setting: in the case of B9 it was 48%.
With B10, the “Enzymatic activity remaining after incubation, compared to SEQ ID NO: 1 (set to 100%)” value is 27%.
On the same count and under the same terms, in the case of B11 it was 55%; in that of B12, 30%; in that of B13, 34%.
In the case of B14, the “Enzymatic activity remaining after incubation, compared to SEQ ID NO: 1 (set to 100%)” value is reported as 47%.
The same measure, in the same setting: in the case of B15 it was 36%; in that of B16, 28%.
On to B17, for which the “Enzymatic activity remaining after incubation, compared to SEQ ID NO: 1 (set to 100%)” value amounted to 21%.
Same read-out and setting: in the case of B18 it was 34%; in that of B19, 45%.
Still for that read-out and setting: with B20 the figure was 22%; with B21, 35%; with B22, 9%.

(Values after US20240352438A1, “MEANS AND METHODS FOR DETOXIFYING OCHRATOXIN A” (DSM Austria GmbH, priority 2021, published 2024).)
